In US20240287172A1 (SCIRHOM, published 2024):
Positions count from the first letter of the chain named.

T1: hiR2-FL-D592A-T7 (human, UniProt Q6PJF5 1-856)
T1 sequence: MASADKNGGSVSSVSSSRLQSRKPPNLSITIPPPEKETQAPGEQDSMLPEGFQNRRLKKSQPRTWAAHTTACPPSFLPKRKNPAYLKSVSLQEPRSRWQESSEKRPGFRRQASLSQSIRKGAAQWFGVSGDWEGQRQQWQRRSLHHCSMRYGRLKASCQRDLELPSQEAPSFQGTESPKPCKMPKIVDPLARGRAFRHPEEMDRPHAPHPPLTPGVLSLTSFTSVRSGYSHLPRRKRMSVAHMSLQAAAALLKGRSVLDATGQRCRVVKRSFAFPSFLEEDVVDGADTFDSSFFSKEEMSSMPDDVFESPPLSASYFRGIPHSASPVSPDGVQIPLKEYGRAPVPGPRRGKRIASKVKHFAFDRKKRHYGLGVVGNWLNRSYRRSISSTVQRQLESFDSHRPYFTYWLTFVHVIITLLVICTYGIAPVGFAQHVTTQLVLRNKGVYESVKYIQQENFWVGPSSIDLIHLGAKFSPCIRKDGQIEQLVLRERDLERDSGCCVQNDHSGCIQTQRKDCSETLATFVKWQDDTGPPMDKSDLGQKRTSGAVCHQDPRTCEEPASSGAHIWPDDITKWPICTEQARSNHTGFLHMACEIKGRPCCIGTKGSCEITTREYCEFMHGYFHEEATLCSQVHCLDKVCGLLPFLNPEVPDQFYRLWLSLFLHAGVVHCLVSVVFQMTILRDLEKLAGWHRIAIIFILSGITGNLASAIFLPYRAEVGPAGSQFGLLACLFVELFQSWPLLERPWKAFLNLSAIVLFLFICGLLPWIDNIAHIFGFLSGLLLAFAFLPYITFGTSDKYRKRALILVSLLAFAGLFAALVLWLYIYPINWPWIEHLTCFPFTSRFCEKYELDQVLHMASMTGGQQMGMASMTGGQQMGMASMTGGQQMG

T2: hiR2-FL-K542A-T7 (human, UniProt Q6PJF5 1-856)
T2 sequence: T1 sequence with K542A, A592D

B1: antibody 48 (antibody, V domains shown)
VH: QVQLQQSGTELVRPGTSVKVSCKASGYAFTNYLIEWVKQRPGQGLEWIGVINPGSGFTKYNEKFKGKATLTADKSSSTVYMHLSSLTSEDSAVYFCARGLYRAMDYWGQGTSVTVSS
VL: DIQMTQSPASQSASLGESVTITCLASQTIATWLAWYQQKPGKSPQLLIYGATTLADGVPSRFSGGGSGTKFSFKISSLQAEDFVSYYCQQLYSTPYTFGGGTKLEIK
notes: mouse IgG, kappa light chain; also called clone #48; purified antibody 48
B2: antibody 50 (antibody, V domains shown)
VH: B1 VH with T9A, T16A, T30S, V79A, H82Q
VL: B1 VL with A30G, G50A, T52A, T53S, S85N, L91I
notes: mouse IgG, kappa light chain; also called clone #50; purified antibody 50
B3: antibody 16 (antibody, V domains shown)
VH: QVTLKESGPGILQPSQTLSLTCSFSGFSLSTFALGVGWIRQPSGRGLEWLAHIWWDDDKYYNPALKSRLTISKDTSKNHVFLKIANVDTADTATYYCARITTYYYGMDYWGQGTSVTVSS
VL: DIVLSQSPATLSVTPGDSVSLFCRASQSIGNHLHWYQQESHASPRLLIKYASQSISGIPSRFSGSGSGTDFTLSINSVETEDFGMYFCQQSYNWPLTFGAGTKLELK
notes: mouse IgG, kappa light chain; also called clone #16; purified antibody 16
B4: antibody 3 (antibody, V domains shown)
VH: QVTLKESGPGILQPSQTLSLTCSFSGFSLTTFAMGIGWVRQPSGKGLEWLAHIWWDGEKYNNPVLKSRLTISKDTSKNQVFLRIANVDTPDTATYYCARISSIYYIIDNWGQGTSVTVSS
VL: B3 VL with S5T, D17H, F22S, G30S, H32N, Q38K, E39K, A42E, A51V
notes: mouse IgG, kappa light chain; also called clone #3; purified antibody 3

Key:
hiR2-FL-D592A-T7 = biological target: T1, hiR2-FL-D592A-T7; test: FACS on MEF-DKO cells expressing the variant, 3 µg/ml antibody
Procedure, shortened: (§1)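 Read-out is PE fluorescence by flow cytometry after two-step staining: antibody at 3 μg/ml for 1 hour on ice, then PE-labelled goat anti-mouse IgG F(ab′)2 (1:100) for 1 hour on ice.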

hiR2-FL-K542A-T7 = biological target: T2, hiR2-FL-K542A-T7; test: as above
Procedure, shortened: as §1

| Binder | loss of binding vs wild type (hiR2-FL-D592A-T7) [%] | loss of binding vs wild type (hiR2-FL-K542A-T7) [%] |
| --- | --- | --- |
| B1 | ≥ 60 |  |
| B2 | ≥ 60 |  |
| B3 |  | ≥ 30 |
| B4 |  | ≥ 60 |
